Laboratory results reported in PMC13096800.

Target: apoptosis-inducing factor, mitochondrial (AIFM1) (human) (UniProt O95831)
Experiment: cross-linking; sulfo-SDA (0.5 mM) photo-cross-linking of AIFM1 at 1 mg/ml, pre-incubated on ice with 1 mM NADH for 1 h to induce dimerization; 10 mM HEPES-NaOH pH 7.8, 150 mM NaCl, 4 mM MgCl2, 0.5 mM TCEP; UVEN UV activation 0-180 s; SDS-PAGE, and LC-MS/MS of the 32-s sample

stoichiometry N: 2
Substance: apoptosis-inducing factor, mitochondrial (AIFM1) (from UniProt O95831 103-613) (natural protein)
